# Assay results published in IntAct's records for PubMed 11163211.
# B1: G2/mitotic-specific cyclin cig2 (Schizosaccharomyces pombe (strain ATCC 38366 / 972)), P36630 (parent)
# chain: MALYSISKPVGSKINKHSYQDENTLVGKQALSKGTEKTKLSTNFEINLPRRTVLSDVSNVGKNNADEKDTKKAKRSFDESNLSTNEEADKPVESKFVKKLKVYSKNADPSVETLQKDRVSNVDDHLSSNPLMAEEYAPEIFEYIRKLDLKCLPNPKYMDQQKELTWKMREILNEWLVEIHSNFCLMPETLYLAVNIIDRFLSRRSCSLSKFQLTGITALLIASKYEEVMCPSIQNFVYMTDGAFTVEDVCVAERYMLNVLNFDLSYPSPLNFLRKISQAEGYDAQTRTLGKYLTEIYLFDHDLLRYPMSKIAAAAMYLSRRLLRRGPWTPKLVESSGGYEEHELKEIAYIMLHYHNKPLEHKAFFQKYSSKRFLKASIFVHQLVRQRYSVNRTDDDDLQSEPSSSLTNDGH
# Variants of: B1
# Conditions: with cdk1_schpo cdc2, P04551
# Chain of cdk1_schpo cdc2, P04551 (P04551 whole entry): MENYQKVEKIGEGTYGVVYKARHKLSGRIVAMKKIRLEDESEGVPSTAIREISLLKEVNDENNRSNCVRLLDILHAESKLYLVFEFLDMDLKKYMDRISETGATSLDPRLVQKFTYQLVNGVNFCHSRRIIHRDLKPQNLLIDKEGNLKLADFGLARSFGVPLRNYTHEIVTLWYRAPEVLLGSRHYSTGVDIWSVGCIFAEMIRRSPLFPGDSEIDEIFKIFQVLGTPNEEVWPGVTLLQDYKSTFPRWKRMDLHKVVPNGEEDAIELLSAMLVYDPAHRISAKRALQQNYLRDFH
row,Variant,effect of a mutation on the interaction
1,MALYSISKPVGSKINKHSYQDENTLVGKQALSKGTEKTKLSTNFEINLPRRTVLSDVSNVGKNNADEKDTKKAKRSFDESNLSTNEEADKPVESKFVKKLKVYSKNADPSVETLQKDRVSNVDDHLSSNPLMAEEYAPEIFEYIRKLDLKCLPNPKYMDQQKELTWKMAAALNEWLVEIHSNFCLMPETLYLAVNIIDRFLSRRSCSLSKFQLTGITALLIASKYEEVMCPSIQNFVYMTDGAFTVEDVCVAERYMLNVLNFDLSYPSPLNFLRKISQAEGYDAQTRTLGKYLTEIYLFDHDLLRYPMSKIAAAAMYLSRRLLRRGPWTPKLVESSGGYEEHELKEIAYIMLHYHNKPLEHKAFFQKYSSKRFLKASIFVHQLVRQRYSVNRTDDDDLQSEPSSSLTNDGH [R169A;E170A;I171A],disrupting interaction
